Data reported in patent US20260242478A1 (published 2026).

Assays:
[1] = biological target: Anti-CD28 Fab (SEQ ID NOs: 696, 697); assay: phage binding ELISA; Fab-coated wells pre-incubated with saturating CD28 antigen as competitor, anti-M13 HRP detection
Target sequence in this assay (VH, as listed by the source, chain 1 of 2): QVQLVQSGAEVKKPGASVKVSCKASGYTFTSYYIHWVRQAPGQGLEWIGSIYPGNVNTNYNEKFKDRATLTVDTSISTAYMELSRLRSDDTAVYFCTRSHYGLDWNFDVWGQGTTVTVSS
Target sequence in this assay (VL, as listed by the source, chain 2 of 2): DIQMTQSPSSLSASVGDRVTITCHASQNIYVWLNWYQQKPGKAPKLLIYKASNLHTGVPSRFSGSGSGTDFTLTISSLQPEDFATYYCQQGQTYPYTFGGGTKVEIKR
Experimental: (§1) Clonal phage were harvested as crude supematants and screened via standard ELISAs. […] Prior to the addition of clonal phage, wells were incubated with blocking buffer and CD28 antigen or blocking buffer alone. Without washing or aspirating, clonal phage supematants were then added to the wells and incubated for a short time. Wells were then washed followed by detection of bound phage using a horse radish conjugated anti-M13 antibody.

[2] = biological target: Anti-CD28 Fab (SEQ ID NOs: 696, 697); assay: phage binding ELISA; biotinylated anti-CD28 Fab on neutravidin plate, clonal phage supernatant, anti-M13 HRP detection;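 further: wells pretreated with blocking buffer, either plus or minus CD28 antigen, then given crude phage supernatant briefly without washing in between, then washed before anti-M13 HRP readout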
Target sequence in this assay (VH, as listed by the source, chain 1 of 2): as the sequence (VH, as listed by the source, chain 1 of 2) above
Target sequence in this assay (VL, as listed by the source, chain 2 of 2): as the sequence (VL, as listed by the source, chain 2 of 2) above
Experimental: as §1

[3] = biological target: T1, Anti-CD28 Fab (SEQ ID NOs: 696, 697); assay: phage binding ELISA on captured anti-CD28 Fab; competitor: CD28 antigen pre-incubated in the well;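 further: clonal phage supernatants added briefly to wells preblocked with or without CD28, bound phage detected through an HRP-linked anti-M13 antibody, wells with blocking buffer alone as comparison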
T1 construct: Biotinylated and captured on neutravidin coated plates in the phage ELISA
T1 sequence (VH, as listed by the source, chain 1 of 2): as the sequence (VH, as listed by the source, chain 1 of 2) above
T1 sequence (VL, as listed by the source, chain 2 of 2): as the sequence (VL, as listed by the source, chain 2 of 2) above
Experimental: (§2) Clonal phage were harvested as crude supematants and screened via standard ELISAs. […] Prior to the addition of clonal phage, wells were incubated with blocking buffer and CD28 antigen or blocking buffer alone. Without washing or aspirating, clonal phage supematants were then added to the wells and incubated for a short time. Wells were then washed followed by detection of bound phage using a horse radish conjugated anti-M13 antibody. Clonal phage of interest were then sent for sequence analysis.

[4] = biological target: T1, Anti-CD28 Fab (SEQ ID NOs: 696, 697); assay: phage binding ELISA; biotinylated anti-CD28 Fab on neutravidin plate, bound phage detected with anti-M13-HRP;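 further: clonal phage tested as crude supernatants, given a short incubation in the Fab-captured wells before bound phage were read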
Experimental: as §2

[5] = biological target: T2, Anti-CD28 Fab (SEQ ID NOs: 696, 697); assay: phage binding ELISA; biotinylated anti-CD28 Fab on neutravidin plate, clonal phage detected with anti-M13-HRP;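 further: crude clonal phage supernatants added briefly to wells preincubated in blocking buffer with or without CD28 antigen, then washed before detection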
T2 construct: In the phage ELISA the Fab was biotinylated and captured on neutravidin coated plates
T2 sequence (VH, as listed by the source, chain 1 of 2): as the sequence (VH, as listed by the source, chain 1 of 2) above
T2 sequence (VL, as listed by the source, chain 2 of 2): as the sequence (VL, as listed by the source, chain 2 of 2) above
Experimental: as §2

[6] = biological target: T2, Anti-CD28 Fab (SEQ ID NOs: 696, 697); assay: phage binding ELISA; Fab-coated wells pre-incubated with CD28 antigen as competitor, phage detected with anti-M13-HRP
Experimental: as §2

[7] = biological target: T3, Anti-CD28 Fab (SEQ ID NOs: 696, 697); assay: phage binding ELISA; Fab-coated wells pre-incubated with CD28 antigen as competitor;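 further: clonal phage supernatants added to wells preincubated with CD28 antigen or blocking buffer only, bound phage detected with HRP-conjugated anti-M13 antibody, buffer-only wells as control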
T3 construct: In the phage ELISA the Fab was biotinylated and captured on neutravidin coated plates
T3 sequence (VH, as listed by the source, chain 1 of 2): as the sequence (VH, as listed by the source, chain 1 of 2) above
T3 sequence (VL, as listed by the source, chain 2 of 2): as the sequence (VL, as listed by the source, chain 2 of 2) above
Experimental: as §1

[8] = biological target: T3, Anti-CD28 Fab (SEQ ID NOs: 696, 697); assay: phage binding ELISA; biotinylated anti-CD28 Fab on neutravidin plate, bound phage detected with anti-M13 HRP
Experimental: as §1

Binder | Anti-CD28 Fab signal in the presence of CD28 [1] | Anti-CD28 Fab (SEQ ID NOs: 696, 697) signal [2] | Anti-CD28 Fab signal in the presence of CD28 [3] | Anti-CD28 Fab (SEQ ID NOs: 696, 697) signal [4] | Anti-CD28 Fab (SEQ ID NOs: 696, 697) signal [5] | Anti-CD28 Fab signal in the presence of CD28 [6] | other results
PCSAGVTYAWLYCV (also called Peptide-92 library clone) [Phage-1587] | 0.06 | 1.41 |  |  |  |  | 
RCSFRFITLAEACV (also called Peptide-92 library clone) [Phage-1577] | 0.08 | 1.41 |  |  |  |  | 
GCAAGASYPWPACL (also called Peptide-92 library clone) [Phage-1582] | 0.06 | 1.41 |  |  |  |  | 
LCSAGAMWQWPTCL (tested as crude phage supernatant) [Phage-1544] |  |  | 0.05 | 1.51 |  |  | 
QCAAGAMWTWPACF (tested as crude phage supernatant) [Phage-1537] |  |  | 0.06 | 1.54 |  |  | 
TCEAVFIYSWPFCL (tested as crude phage supernatant) [Phage-1543] |  |  | 0.08 | 1.52 |  |  | 
TCSAGATYSWPFCF (tested as crude phage supernatant) [Phage-1534] |  |  | 0.07 | 1.55 |  |  | 
SCAAGATYEWPTCL (Peptide-92 library clone) [Phage-1686] |  |  |  |  | 0.81 | 0.07 | 
SCAAGATYKWPACF (Peptide-92 library clone) [Phage-1687] |  |  |  |  | 0.8 | 0.06 | 
MCAAGAAWAWPLCL (also called Peptide-92 library clone) [Phage-1588] | 0.07 | 1.4 |  |  |  |  | 
LCAAGAHYSWPACF (also called Peptide-92 library clone) [Phage-1586] | 0.09 | 1.41 |  |  |  |  | 
WCAAGATWPWPLCI (peptide, not shown: large carriers, Clonal phage of the Peptide-92 optimisation library, tested as crude phage supernatant) [Phage-1489] |  |  |  |  |  |  | Anti-CD28 Fab signal in the presence of CD28 [7]: 0.17; Anti-CD28 Fab (SEQ ID NOs: 696, 697) signal [8]: 1.7
SCSAGAMWLWPECF (Peptide-92 library clone) [Phage-1688] |  |  |  |  | 0.8 | 0.06 | 
TCSAGAMYNWPECF (Peptide-92 library clone) [Phage-1676] |  |  |  |  | 0.92 | 0.08 | 
TCSAGAHYPWPICL (also called Peptide-92 library clone) [Phage-1578] | 0.08 | 1.41 |  |  |  |  | 
TCAAGAMWNWPQCY (tested as crude phage supernatant) [Phage-1539] |  |  | 0.07 | 1.54 |  |  | 
WCAAFFHYPWPQCF (Peptide-92 library clone) [Phage-1679] |  |  |  |  | 0.87 | 0.05 | 
TCAAGASWEWPLCF (tested as crude phage supernatant) [Phage-1541] |  |  | 0.08 | 1.52 |  |  | 
PCAAGAMWPWPVCL (also called Peptide-92 library clone) [Phage-1583] | 0.06 | 1.41 |  |  |  |  | 
QCAAGFSYTWPECY (Peptide-92 library clone) [Phage-1678] |  |  |  |  | 0.9 | 0.11 | 
TCAAGAQFAWPLCL (also called Peptide-92 library clone) [Phage-1579] | 0.07 | 1.41 |  |  |  |  | 
TCAAGATYEWPSCI (Peptide-92 library clone) [Phage-1681] |  |  |  |  | 0.86 | 0.09 | 
TCSAGAMYSWPLCI (Peptide-92 library clone) [Phage-1677] |  |  |  |  | 0.91 | 0.08 | 

Binder | Anti-CD28 Fab signal in the presence of CD28 [1] | Anti-CD28 Fab (SEQ ID NOs: 696, 697) signal [2] | Anti-CD28 Fab signal in the presence of CD28 [3] | Anti-CD28 Fab (SEQ ID NOs: 696, 697) signal [4] | Anti-CD28 Fab (SEQ ID NOs: 696, 697) signal [5] | Anti-CD28 Fab signal in the presence of CD28 [6] | other results
SCSAGASLQLSQCF (also called Peptide-92 library clone) [Phage-1576] | 0.05 | 1.41 |  |  |  |  | 
TCAAGAKYVWPLCF (Peptide-92 library clone) [Phage-1682] |  |  |  |  | 0.85 | 0.12 | 
TCAAGATWVWPTCF (Peptide-92 library clone) [Phage-1675] |  |  |  |  | 0.92 | 0.07 | 
SCSAGAMYPWPMCL (tested as crude phage supernatant) [Phage-1540] |  |  | 0.06 | 1.53 |  |  | 
LCSAGFLFQWSTCL (also called Peptide-92 library clone) [Phage-1580] | 0.06 | 1.41 |  |  |  |  | 
SCSAGAAWPWPWCL (tested as crude phage supernatant) [Phage-1532] |  |  | 0.08 | 1.55 |  |  | 
LCAEGADYPWPMCL (tested as crude phage supernatant) [Phage-1545] |  |  | 0.08 | 1.51 |  |  | 
TCSAGATYVWPDCF (tested as crude phage supernatant) [Phage-1542] |  |  | 0.09 | 1.52 |  |  | 
RCAAGFHYSWPNCF (also called Peptide-92 library clone) [Phage-1581] | 0.06 | 1.41 |  |  |  |  | 
LCAEGFDYSWPMCL (tested as crude phage supernatant) [Phage-1533] |  |  | 0.08 | 1.55 |  |  | 
SCKAGAPYYWPGCF (tested as crude phage supernatant) [Phage-1535] |  |  | 0.08 | 1.54 |  |  | 
ECGWEPGQHWRVCF (Peptide-92 library clone) [Phage-1685] |  |  |  |  | 0.82 | 0.06 | 
LCAAGFMYEWPLCF (also called Peptide-92 library clone) [Phage-1590] | 0.06 | 1.4 |  |  |  |  | 
TCSAGATYSWPACL (also called Peptide-92 library clone) [Phage-1584] | 0.06 | 1.41 |  |  |  |  | 
TCAAGASWDWPFCF (Peptide-92 library clone) [Phage-1684] |  |  |  |  | 0.82 | 0.08 | 
TCAAGATWDWPLCF (tested as crude phage supernatant) [Phage-1546] |  |  | 0.06 | 1.51 |  |  | 
LCEAGFNYDWPRCL (Peptide-92 library clone) [Phage-1683] |  |  |  |  | 0.85 | 0.07 | 
TCSAVFSYTWSNCF (tested as crude phage supernatant) [Phage-1536] |  |  | 0.06 | 1.54 |  |  | 
WCSAVFSYQWPPCF (Peptide-92 library clone) [Phage-1689] |  |  |  |  | 0.78 | 0.06 | 
RCKAGVPYKWPMCL (Peptide-92 library clone) [Phage-1680] |  |  |  |  | 0.87 | 0.06 | 
TCAAGASWNWPACE (Read from the row with '-' = Peptide-92 residue: TCAAGASWNWPACE; also called Peptide-92 library clone) [Phage-1585] | 0.07 | 1.41 |  |  |  |  | 
TCAAGAAWEWPICF (tested as crude phage supernatant) [Phage-1538] |  |  | 0.06 | 1.54 |  |  | 
TCAAGASYPWPLCV (also called Peptide-92 library clone) [Phage-1589] | 0.06 | 1.4 |  |  |  |  | 
